Legend:
[1] = target: mouse melanocortin 1 receptor (mouse) (UniProt Q01727)
[2] = target: mouse melanocortin 4 receptor (mouse) (UniProt P56450)
Chain of UniProt P56450 (P56450 whole entry): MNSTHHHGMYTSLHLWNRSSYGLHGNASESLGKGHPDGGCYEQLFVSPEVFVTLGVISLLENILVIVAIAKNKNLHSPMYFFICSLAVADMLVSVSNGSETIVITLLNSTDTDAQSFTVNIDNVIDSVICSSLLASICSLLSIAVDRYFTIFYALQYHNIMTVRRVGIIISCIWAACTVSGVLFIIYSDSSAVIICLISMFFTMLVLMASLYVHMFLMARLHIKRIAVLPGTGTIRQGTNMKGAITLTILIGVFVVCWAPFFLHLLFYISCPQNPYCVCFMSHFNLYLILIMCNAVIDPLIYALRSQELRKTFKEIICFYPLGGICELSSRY

Chain of UniProt Q01727 (Q01727 whole entry): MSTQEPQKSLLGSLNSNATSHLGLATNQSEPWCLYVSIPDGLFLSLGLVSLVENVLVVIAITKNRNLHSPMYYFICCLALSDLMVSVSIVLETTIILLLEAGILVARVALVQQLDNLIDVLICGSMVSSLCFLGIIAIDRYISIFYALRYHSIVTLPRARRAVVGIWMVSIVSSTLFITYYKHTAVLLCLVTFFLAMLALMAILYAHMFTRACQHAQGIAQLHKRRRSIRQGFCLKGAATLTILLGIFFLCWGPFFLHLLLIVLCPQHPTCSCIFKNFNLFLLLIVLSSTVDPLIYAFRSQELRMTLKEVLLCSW

- EC50 of cAMP production (EPAC BRET sensor), HEK293 cells expressing mMC1R, 3 min [1]: 4.8 nM
- EC50 of cAMP production (EPAC BRET sensor), HEK293 cells expressing mMC4R, 3 min [2]: 11.5 nM
Substance: α-melanocyte-stimulating hormone (peptide)

— article doi:10.1101/2025.08.08.669345
